15 substances from patent US20240132578A1 can be followed below.

Holding throughout (assay): cell-based or functional assay
Test [1] addresses HIV-1 Env of isolate 92RW020 (clade A pseudovirus) (HIV-1).
Test [2] deals with HIV-1 Env of isolate 92UG031 (clade A pseudovirus) (HIV-1).
The target of test [3] is HIV-1 Env of isolate MGRM-Chronic-B-008, clade B (HIV-1).
Test [4] deals with HIV-1 Env of pseudovirus MGRM-F1-018 (clade F) (HIV-1).
Test [5] has as its target HIV-1 Env of pseudovirus MGRM-F1-020 (clade F) (HIV-1).
The target in test [6] is HIV-1 Env of pseudovirus MGRM-F1-023 (clade F) (HIV-1).
Test [7] deals with HIV-1 MGRM-AG-008 Env (pseudovirus) (HIV-1).
The target in test [8] is HIV-1 MGRM-AG-011 Env (pseudovirus) (HIV-1).
Test [9] addresses HIV-1 envelope glycoprotein (Env) of isolate 93IN905 (HIV-1).
Test [10] concerns the target HIV-1 envelope glycoprotein (Env) of isolate MGRM-C-002 (HIV-1).
The target of test [11] is HIV-1 envelope glycoprotein (Env) of isolate MGRM-C-017 (HIV-1).
Test [12] has as its target HIV-1 Env of pseudovirus MGRM-D-013 (HIV-1).
Test [13] deals with HIV-1 Env of pseudovirus MGRM-D-014 (HIV-1).
Test [14] has as its target HIV-1 Env of pseudovirus MGRM-F1-008 (HIV-1).
Test [15] has as its target HIV-1 Env of pseudovirus MGRM-F1-012 (HIV-1).
Test [16] has as its target HIV-1 Env of pseudovirus MGRM-F1-017 (HIV-1).
For test [17], the target named is HIV-1 envelope glycoprotein (Env) of isolate MG RM-AG-005 (HIV-1).
Test [18] has as its target HIV-1 Env of isolate 94 KE 105 (pseudovirus) (HIV-1).
The target in test [19] is HIV-1 Env of isolate MG RM-A-014 (pseudovirus) (HIV-1).
For test [20], the target named is HIV-1 Env of isolate MGRM-AE-003 (pseudovirus) (HIV-1).
The target in test [21] is HIV-1 Env of isolate MGRM-C-020 (subtype C), on pseudovirus (HIV-1).
Test [22] addresses HIV-1 Env of isolate MGRM-D-001 (HIV-1).
The target of test [23] is HIV-1 Env of isolate MGRM-G-006 (subtype G) (HIV-1).
Test [24] has as its target HIV-1 Env of isolate MGRM-G-009 (subtype G) (HIV-1).
Test [25] concerns the target HIV-1 Env of pseudovirus isolate 6535.3 (clade B) (HIV-1).
Test [26] deals with HIV-1 Env of pseudovirus isolate APV-6 (clade B) (HIV-1).
In test [27] the target is HIV-1 Env of isolate MGRM-A-003 (pseudovirus) (HIV-1).
Test [28] deals with HIV-1 Env of isolate MGRM-AG-009 (subtype AG) (HIV-1).
The target of test [29] is HIV-1 Env of isolate MGRM-C-002 (HIV-1).
The target of test [30] is HIV-1 Env of isolate MGRM-Chronic-B-004 (HIV-1).
In test [31] the target is HIV-1 Env of pseudovirus isolate MGRM-C-007 (clade C) (HIV-1).
The target of test [32] is HIV-1 Env of pseudovirus isolate MGRM-C-009 (clade C) (HIV-1).
Test [33] addresses HIV-1 Env of pseudovirus isolate MGRM-C-010 (clade C) (HIV-1).
The target of test [34] is HIV-1 JR-CSF Env L416A (HIV-1 (isolate JR-CSF)) (UniProt P20871).
Test [35] concerns the target HIV-1 JR-CSF Env Q422A (HIV-1 (isolate JR-CSF)) (UniProt P20871).
For test [36], the target named is aMLV envelope protein on pseudovirus (negative control).

Sequence of 4980_N08 (PGT-143) (antibody) (VH): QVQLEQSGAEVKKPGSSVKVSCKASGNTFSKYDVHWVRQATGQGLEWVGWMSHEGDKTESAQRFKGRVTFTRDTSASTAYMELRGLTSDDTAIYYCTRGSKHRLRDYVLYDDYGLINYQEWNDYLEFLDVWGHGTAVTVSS
Sequence of 4980_N08 (PGT-143) (antibody) (VL): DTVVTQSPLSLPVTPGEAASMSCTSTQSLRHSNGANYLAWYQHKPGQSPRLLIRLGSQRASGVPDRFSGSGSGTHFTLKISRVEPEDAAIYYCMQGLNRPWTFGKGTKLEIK
Sequence of 4995_P16 (PGT-145) (antibody) (VH): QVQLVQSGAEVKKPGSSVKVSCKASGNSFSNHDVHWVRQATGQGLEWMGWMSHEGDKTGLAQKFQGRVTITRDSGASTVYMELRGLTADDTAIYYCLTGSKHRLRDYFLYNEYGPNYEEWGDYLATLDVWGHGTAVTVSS
Sequence of 4995_P16 (PGT-145) (antibody) (VL): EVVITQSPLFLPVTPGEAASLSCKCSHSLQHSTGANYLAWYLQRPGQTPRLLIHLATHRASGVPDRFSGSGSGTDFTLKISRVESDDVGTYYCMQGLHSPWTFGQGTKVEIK
Sequence of PGT-142 (4995_E20) (antibody) (VH): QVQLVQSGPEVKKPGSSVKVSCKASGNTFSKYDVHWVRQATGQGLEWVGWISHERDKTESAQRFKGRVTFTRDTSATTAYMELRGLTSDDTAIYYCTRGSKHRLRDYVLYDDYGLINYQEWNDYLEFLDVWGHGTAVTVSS
Sequence of PGT-142 (4995_E20) (antibody) (VL): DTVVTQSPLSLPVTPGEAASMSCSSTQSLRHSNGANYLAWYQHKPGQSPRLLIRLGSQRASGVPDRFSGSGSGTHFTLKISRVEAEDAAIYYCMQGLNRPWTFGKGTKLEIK
Sequence of PGT-144 (4970_K22) (antibody) (VH): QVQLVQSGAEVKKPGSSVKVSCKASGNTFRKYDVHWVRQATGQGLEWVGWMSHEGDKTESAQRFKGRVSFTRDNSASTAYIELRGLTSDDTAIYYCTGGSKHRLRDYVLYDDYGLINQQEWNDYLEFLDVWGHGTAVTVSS
Sequence of PGT-144 (4970_K22) (antibody) (VL): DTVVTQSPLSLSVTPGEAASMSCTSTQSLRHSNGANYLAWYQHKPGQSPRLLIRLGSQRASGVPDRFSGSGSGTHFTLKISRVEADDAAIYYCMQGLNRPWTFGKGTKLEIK
Sequence of PGT-141 (4964_G22; 4993_K13) (antibody) (VH): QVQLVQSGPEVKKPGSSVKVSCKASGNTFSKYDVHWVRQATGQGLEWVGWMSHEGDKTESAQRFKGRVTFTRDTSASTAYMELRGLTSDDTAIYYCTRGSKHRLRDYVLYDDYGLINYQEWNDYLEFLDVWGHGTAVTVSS

In the case of 2G12 (antibody), the IC50 (µg/ml), pseudovirus neutralization is 0.48 µg/mL in [1]; more than 50 µg/mL in test [2]; 0.55 µg/mL in test [3]; more than 50 µg/mL in test [7]; more than 50 µg/mL in test [8]; more than 50 µg/mL in [9]. In addition, the IC50 (µg/ml), pseudovirus neutralization in test [10] and in test [11] was more than 50 µg/mL in each case. Moreover, the IC50 in test [4] is more than 50 µg/mL; in test [5], more than 50 µg/mL; in [6] it was 9.23 µg/mL.
Turning to b12 (antibody), the IC50 (µg/ml), pseudovirus neutralization in [1] was more than 50 µg/mL; in [2] it was more than 50 µg/mL; in test [3], 2.82 µg/mL; in test [7], more than 50 µg/mL; in test [8], more than 50 µg/mL; in test [9], 21.4 µg/mL. Further, the IC50 (µg/ml), pseudovirus neutralization in [10] and in test [11] was more than 50 µg/mL in each case. Also, the IC50 in test [4], in test [5] and in [6] was more than 50 µg/mL each time.
Take 1495_C14 (PGC14) (antibody): the IC50 (µg/ml), pseudovirus neutralization in test [1] was 46 µg/mL; in [2], more than 50 µg/mL; in [3], more than 50 µg/mL; in test [7], 45 µg/mL; in test [8] it was more than 50 µg/mL; in test [9] it was 19 µg/mL. The IC50 (µg/ml), pseudovirus neutralization in test [10] and in [11] was more than 50 µg/mL throughout. In addition, the IC50 in test [4], in test [5] and in test [6] was more than 50 µg/mL throughout.
PGT-142 (4995_E20) (antibody): the IC50, pseudovirus neutralization was 0.221 µg/mL in test [12]; 0.005 µg/mL in test [13]; 0.124 µg/mL in [14]; more than 50 µg/mL in test [15]; 23.5 µg/mL in [16]. The IC50 in test [17] stood at 0.383 µg/mL.
As for VRC01 (antibody), the IC50 (µg/mL), single-round pseudovirus neutralization in [18] is 0.499 µg/mL; in test [19], 0.135 µg/mL; in test [20], 0.685 µg/mL. The same substance displayed an IC50, single-round pseudovirus neutralization in test [21] of 0.396 µg/mL. For the same substance, the IC50 (µg/mL), pseudovirus neutralization was more than 50 µg/mL in test [22], 0.055 µg/mL in test [23] and 0.073 µg/mL in test [24]. In addition, the IC50, pseudovirus neutralization was 0.087 µg/mL in [12]; 0.332 µg/mL in test [13]; 1.11 µg/mL in [14]; 0.488 µg/mL in [15]; 1.08 µg/mL in [16]; 1.75 µg/mL in test [25]. In [26], this substance had an IC50, pseudovirus neutralization of 1.81 µg/mL. In test [17], this substance registered an IC50 of 0.091 µg/mL.
For PGT-143 (4980_N08) (antibody), the IC50, pseudovirus neutralization in [12] is 0.386 µg/mL; in test [13], 0.009 µg/mL; in test [14], 0.189 µg/mL; in [15] it was more than 50 µg/mL; in test [16], 26.3 µg/mL. In test [17], this substance gave a half-maximal inhibitory concentration (IC50) of 1.11 µg/mL.
4970_K22 (PGT-144) (antibody): the IC50 (µg/mL), single-round pseudovirus neutralization in test [18] was 0.29 µg/mL; in [19] it was more than 50 µg/mL; in test [20], more than 50 µg/mL. Further, in [21], the IC50, single-round pseudovirus neutralization came out at 1.29 µg/mL. For the same substance, the IC50 (µg/mL), pseudovirus neutralization in test [22] was more than 50 µg/mL; in [23], 3.84 µg/mL; in [24], more than 50 µg/mL. Moreover, the IC50, pseudovirus neutralization in test [25] and in test [26] was more than 50 µg/mL throughout.
PGT-145 (4995_P16) (antibody): the IC50, pseudovirus neutralization in test [12] is 3.48 µg/mL; in test [13], 2.51 µg/mL; in test [14], 0.228 µg/mL; in test [15] it was 0.113 µg/mL; in [16] it was 0.286 µg/mL. Besides, the IC50 in test [17] was 0.045 µg/mL.
Consider 4995_E20 (PGT-142) (antibody), for which the IC50 (µg/mL), single-round pseudovirus neutralization in test [18] was 0.19 µg/mL; in test [19] it was 0.367 µg/mL; in test [20] it was more than 50 µg/mL. The IC50, single-round pseudovirus neutralization in [21] was 0.446 µg/mL. In addition, the results for the IC50 (µg/mL), pseudovirus neutralization in test [22], in test [23] and in test [24] were more than 50 µg/mL, 0.019 µg/mL and 2.81 µg/mL, respectively. For the same substance, the IC50, pseudovirus neutralization in test [25] is more than 50 µg/mL; in test [26], 4.72 µg/mL.
With 5147_N06 (PGT-130) (antibody), the IC50 (µg/mL), pseudovirus neutralization was more than 50 µg/mL in test [27], more than 50 µg/mL in [29] and 0.01 µg/mL in test [30]. Besides, the IC50, pseudovirus neutralization is 9.46 µg/mL in [28], more than 50 µg/mL in test [31], more than 50 µg/mL in test [32] and more than 50 µg/mL in [33]. Also, the Fold IC50 increase relative to wild-type (pseudovirus neutralization) in [34] and in [35] was 1 fold in each case. Besides, the IC50 (ug/mL), pseudovirus neutralization in test [36] is more than 10 µg/mL.
With 4993_K13 (PGT-141) (antibody), the IC50 (µg/mL), single-round pseudovirus neutralization was 0.204 µg/mL in test [18], 0.628 µg/mL in test [19] and more than 50 µg/mL in [20]. The substance further gave an IC50, single-round pseudovirus neutralization in test [21] of 1.34 µg/mL. Further, the IC50 (µg/mL), pseudovirus neutralization in [22] is more than 50 µg/mL; in [23] it was 0.043 µg/mL; in test [24], 1.89 µg/mL. Besides, the IC50, pseudovirus neutralization is more than 50 µg/mL in test [25] and 14.2 µg/mL in test [26].
For PGT-141 (4964_G22; 4993_K13) (antibody), the IC50, pseudovirus neutralization was 0.179 µg/mL in test [12]; 0.01 µg/mL in test [13]; 0.193 µg/mL in test [14]; more than 50 µg/mL in test [15]; 30.8 µg/mL in test [16]. The same substance registered an IC50 in test [17] of 0.497 µg/mL.
As to 4995_P16 (PGT-145) (antibody), the IC50 (µg/mL), single-round pseudovirus neutralization in [18] was 1.32 µg/mL; in test [19], 1.36 µg/mL; in test [20], 0.552 µg/mL. The same substance registered an IC50, single-round pseudovirus neutralization in [21] of 0.712 µg/mL. Also, the IC50 (µg/mL), pseudovirus neutralization in test [22] was 0.56 µg/mL; in [23] it was 0.286 µg/mL; in test [24], 0.982 µg/mL. Besides, the IC50, pseudovirus neutralization in test [25] was more than 50 µg/mL; in test [26], 0.104 µg/mL.
Regarding 4980_N08 (PGT-143) (antibody), the IC50 (µg/mL), single-round pseudovirus neutralization in [18] was 0.368 µg/mL; in test [19], 1.07 µg/mL; in test [20], more than 50 µg/mL. Moreover, the IC50, single-round pseudovirus neutralization in [21] turned out to be 0.797 µg/mL. The values for the IC50 (µg/mL), pseudovirus neutralization in [22], in test [23] and in [24] were more than 50 µg/mL, 0.031 µg/mL and 2.97 µg/mL, respectively. Further, the IC50, pseudovirus neutralization in test [25] is more than 50 µg/mL; in test [26], 14 µg/mL.
Consider PGT-144 (4970_K22) (antibody), for which the IC50, pseudovirus neutralization in test [12] was more than 50 µg/mL; in test [13], 0.113 µg/mL; in [14], 0.507 µg/mL; in test [15], more than 50 µg/mL; in test [16], more than 50 µg/mL. For the same substance, the IC50 in [17] is more than 50 µg/mL.

The term IC50 denotes the point on the concentration scale where inhibition reaches its midpoint. The low end stands for greater potency in that assay, the high end for weaker potency in that assay.
